The conditions of the data set: Thermus thermophilus; pH 8; 25 °C; GdnHCl; Fluorescence; Tris-HCl 50 mM; reversible: No; whole UniProt chain shown.

Values joined by “and” are separate entries in the source; they are usually repeats but may differ in a detail not shown here. Identical values can stand only once.

B1: Small ribosomal subunit protein bS6 wild type, P23370 (protein)
chain: MRRYEVNIVLNPNLDQSQLALEKEIIQRALENYGARVEKVEELGLRRLAYPIAKDPQGYFLWYQVEMPEDRVNDLARELRIRDNVRRVMVVKSQEPFLANA
For the protein B1, the denaturant m value is 2.54 kcal/mol/M and 2.76 kcal/mol/M and 2.7 kcal/mol/M.

The values above are taken from FireProtDB (doi:10.1016/j.jmb.2005.05.056).
